Test results taken from the supplement of paper PMC5998384.

Assays:
HeLa Kyoto [1] = test: melting temperature (median over replicates), in situ; higher = more thermally stable
HeLa Kyoto [2] = test: thermal stability score vs G1/S (z-score of summed log2 fold changes over temperatures); higher = more thermally stable than in G1/S
HeLa Kyoto [3] = test: solubility change mitosis vs G1/S (difference of NP-40 vs SDS log2 ratios) (log2 ratio difference); higher = more soluble in mitosis
HeLa Kyoto [4] = test: solubility in G1/S (NP-40 vs SDS abundance) (log2 ratio); higher = more soluble; details: cell cycle stage: G1/S
[5] = cell cycle stage: early G1 (4.5 h after nocodazole release)
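Wherever melting temperature (median over replicates), in situ is given: HeLa Kyoto cells synchronized by double thymidine or nocodazole block, proteins quantified by TMT10plex mass spectrometry, three independent biological replicates.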
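Wherever solubility change mitosis vs G1/S (difference of NP-40 vs SDS log2 ratios) is given: synchronized HeLa Kyoto cells (double thymidine block for G1/S, nocodazole release for mitosis), protein amounts in NP-40 versus SDS lysates quantified by mass spectrometry, three biological replicates.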
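Wherever solubility in G1/S (NP-40 vs SDS abundance) is given: HeLa Kyoto cells arrested at G1/S by double thymidine block, proteins quantified by TMT10plex mass spectrometry in mild NP-40 versus SDS extracts, three biological replicates.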
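Wherever thermal stability score vs G1/S (z-score of summed log2 fold changes over temperatures) is given: synchronized HeLa Kyoto cells, proteins quantified by TMT10plex mass spectrometry, three biological replicates, mitosis taken 0.5 h after nocodazole release, G1/S directly after double thymidine block.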

Substance | melting temperature (HeLa Kyoto [1]; cell cycle stage: G1/S) [°C] | melting temperature (HeLa Kyoto [1]; cell cycle stage: mitosis) [°C] | thermal stability score (HeLa Kyoto [2]; [5]) | thermal stability score (HeLa Kyoto [2]; cell cycle stage: mitosis) | solubility change mitosis (log2) (HeLa Kyoto [3]) | solubility in G1/S (log2) (HeLa Kyoto [4])
MPAVLGFEGSANKIGVGVVRDGKVLANPRRTYVTPPGTGFLPGDTARHHRAVILDLLQEALTESGLTSQDIDCIAYTKGPGMGAPLVSVAVVARTVAQLWNKPLVGVNHCIGHIEMGRLITGATSPTVLYVSGGNTQVIAYSEHRYRIFGETIDIAVGNCLDRFARVLKISNDPSPGYNIEQMAKRGKKLVELPYTVKGMDVSFSGILSFIEDVAHRMLATGECTPEDLCFSLQETVFAMLVEITERAMAHCGSQEALIVGGVGCNVRLQEMMATMCQERGARLFATDERFCIDNGAMIAQAGWEMFRAGHRTPLSDSGVTQRYRTDEVEVTWRD [OSGEP] | 55.5 | 55.4 | 0.00035 | -1.39 | -0.136 | 0.0103
MESAAALHFSRPASLLLLLLSLCALVSAQFIVVGPTDPILATVGENTTLRCHLSPEKNAEDMEVRWFRSQFSPAVFVYKGGRERTEEQMEEYRGRTTFVSKDISRGSVALVIHNITAQENGTYRCYFQEGRSYDEAILHLVVAGLGSKPLISMRGHEDGGIRLECISRGWYPKPLTVWRDPYGGVAPALKEVSMPDADGLFMVTTAVIIRDKSVRNMSCSINNTLLGQKKESVIFIPESFMPSVSPCAVALPIIVVILMIPIAVCIYWINKLQKEKKILSGEKEFERETREIALKELEKERVQKEEELQVKEKLQEELRWRRTFLHAVDVVLDPDTAHPDLFLSEDRRSVRRCPFRHLGESVPDNPERFDSQPCVLGRESFASGKHYWEVEVENVIEWTVGVCRDSVERKGEVLLIPQNGFWTLEMHKGQYRAVSSPDRILPLKESLCRVGVFLDYEAGDVSFYNMRDRSHIYTCPRSAFSVPVRPFFRLGCEDSPIFICPALTGANGVTVPEEGLTLHRVGTHQSL [BTN2A1] | 52.7 | 53.4 | -0.399 | -0.343 | -0.101 | -0.062
THOC2 | 48.6 | 49.5 | -3.49 | -0.552 | 0.221 | -0.681
MGVTCVSQMPVAEGKSVQQTVELLTRKLEMLGAEKQGTFCVDCETYHTAASTLGSQGQTGKLMYVMHNSEYPLSCFALFENGPCLIADTNFDVLMVKLKGFFQSAKASKIETRGTRYQYCDFLVKVGTVTMGPSARGISVEVEYGPCVVASDCWSLLLEFLQSFLGSHTPGAPAVFGNRHDAVYGPADTMVQYMELFNKIRKQQQVPVAGIR [MED20] | 51.7 | 52.7 | -0.587 | -0.494 | -0.0509 | 0.339
MSVSLVVIRLELAEHSPVPAGFGFSAAAGEMSDEEIKKTTLASAVACLEGKSPGEKVAIIHQHLGRREMTDVIIETMKSNPDELKTTVEERKSSEASPTAQRSKDHSKECINAAPDSPSKQLPDQISFFSGNPSVEIVHGIMHLYKTNKMTSLKEDVRRSAMLCILTVPAAMTSHDLMKFVAPFNEVIEQMKIIRDSTPNQYMVLIKFRAQADADSFYMTCNGRQFNSIEDDVCQLVYVERAEVLKSEDGASLPVMDLTELPKCTVCLERMDESVNGILTTLCNHSFHSQCLQRWDDTTCPVCRYCQTPEPVEENKCFECGVQENLWICLICGHIGCGRYVSRHAYKHFEETQHTYAMQLTNHRVWDYAGDNYVHRLVASKTDGKIVQYECEGDTCQEEKIDALQLEYSYLLTSQLESQRIYWENKIVRIEKDTAEEINNMKTKFKETIEKCDNLEHKLNDLLKEKQSVERKCTQLNTKVAKLTNELKEEQEMNKCLRANQVLLQNKLKEEERVLKETCDQKDLQITEIQEQLRDVMFYLETQQKINHLPAETRQEIQEGQINIAMASASSPASSGGSGKLPSRKGRSKRGK [BRAP] | 50.3 | 50.2 | 0.558 | 1.83 | -0.181 | 0.1
MADLDSPPKLSGVQQPSEGVGGGRCSEISAELIRSLTELQELEAVYERLCGEEKVVERELDALLEQQNTIESKMVTLHRMGPNLQLIEGDAKQLAGMITFTCNLAENVSSKVRQLDLAKNRLYQAIQRADDILDLKFCMDGVQTALRSEDYEQAAAHTHRYLCLDKSVIELSRQGKEGSMIDANLKLLQEAEQRLKAIVAEKFAIATKEGDLPQVERFFKIFPLLGLHEEGLRKFSEYLCKQVASKAEENLLMVLGTDMSDRRAAVIFADTLTLLFEGIARIVETHQPIVETYYGPGRLYTLIKYLQVECDRQVEKVVDKFIKQRDYHQQFRHVQNNLMRNSTTEKIEPRELDPILTEVTLMNARSELYLRFLKKRISSDFEVGDSMASEEVKQEHQKCLDKLLNNCLLSCTMQELIGLYVTMEEYFMRETVNKAVALDTYEKGQLTSSMVDDVFYIVKKCIGRALSSSSIDCLCAMINLATTELESDFRDVLCNKLRMGFPATTFQDIQRGVTSAVNIMHSSLQQGKFDTKGIESTDEAKMSFLVTLNNVEVCSENISTLKKTLESDCTKLFSQGIGGEQAQAKFDSCLSDLAAVSNKFRDLLQEGLTELNSTAIKPQVQPWINSFFSVSHNIEEEEFNDYEANDPWVQQFILNLEQQMAEFKASLSPVIYDSLTGLMTSLVAVELEKVVLKSTFNRLGGLQFDKELRSLIAYLTTVTTWTIRDKFARLSQMATILNLERVTEILDYWGPNSGPLTWRLTPAEVRQVLALRIDFRSEDIKRLRL [COG4] | 48.7 | 49.6 | 0.91 | 1.79 | -0.175 | -0.0589
MAELVQGQSAPVGMKAEGFVDALHRVRQIAAKIDSIPHLNNSTPLVDPSVYGYGVQKRPLDDGVGNQLGALVHQRTVITEEFKVPDKMVGFIIGRGGEQISRIQAESGCKIQIASESSGIPERPCVLTGTPESIEQAKRLLGQIVDRCRNGPGFHNDIDSNSTIQEILIPASKVGLVIGRGGETIKQLQERTGVKMVMIQDGPLPTGADKPLRITGDAFKVQQAREMVLEIIREKDQADFRGVRGDFNSRMGGGSIEVSVPRFAVGIVIGRNGEMIKKIQNDAGVRIQFKPDDGISPERAAQVMGPPDRCQHAAHIISELILTAQERDGFGGLAAARGRGRGRGDWSVGAPGGVQEITYTVPADKCGLVIGKGGENIKSINQQSGAHVELQRNPPPNSDPNLRRFTIRGVPQQIEVARQLIDEKVGGTNLGAPGAFGQSPFSQPPAPPHQNTFPPRSSGCFPNMAAKVNGNPHSTPVSGPPAFLTQGWGSTYQAWQQPTQQVPSQQSQPQSSQPNYSKAWEDYYKKQSHAASAAPQASSPPDYTMAWAEYYRQQVAFYGQTLGQAQAHSQEQ [FUBP3] | 48.7 | 49.5 | 0.0807 | 1.05 | -0.0288 | 0.337
MAGAASPCANGCGPGAPSDAEVLHLCRSLEVGTVMTLFYSKKSQRPERKTFQVKLETRQITWSRGADKIEGAIDIREIKEIRPGKTSRDFDRYQEDPAFRPDQSHCFVILYGMEFRLKTLSLQATSEDEVNMWIKGLTWLMEDTLQAPTPLQIERWLRKQFYSVDRNREDRISAKDLKNMLSQVNYRVPNMRFLRERLTDLEQRSGDITYGQFAQLYRSLMYSAQKTMDLPFLEASTLRAGERPELCRVSLPEFQQFLLDYQGELWAVDRLQVQEFMLSFLRDPLREIEEPYFFLDEFVTFLFSKENSVWNSQLDAVCPDTMNNPLSHYWISSSHNTYLTGDQFSSESSLEAYARCLRMGCRCIELDCWDGPDGMPVIYHGHTLTTKIKFSDVLHTIKEHAFVASEYPVILSIEDHCSIAQQRNMAQYFKKVLGDTLLTKPVEISADGLPSPNQLKRKILIKHKKLAEGSAYEEVPTSMMYSENDISNSIKNGILYLEDPVNHEWYPHYFVLTSSKIYYSEETSSDQGNEDEEEPKEVSSSTELHSNEKWFHGKLGAGRDGRHIAERLLTEYCIETGAPDGSFLVRESETFVGDYTLSFWRNGKVQHCRIHSRQDAGTPKFFLTDNLVFDSLYDLITHYQQVPLRCNEFEMRLSEPVPQTNAHESKEWYHASLTRAQAEHMLMRVPRDGAFLVRKRNEPNSYAISFRAEGKIKHCRVQQEGQTVMLGNSEFDSLVDLISYYEKHPLYRKMKLRYPINEEALEKIGTAEPDYGALYEGRNPGFYVEANPMPTFKCAVKALFDYKAQREDELTFIKSAIIQNVEKQEGGWWRGDYGGKKQLWFPSNYVEEMVNPVALEPEREHLDENSPLGDLLRGVLDVPACQIAIRPEGKNNRLFVFSISMASVAHWSLDVAADSQEELQDWVKKIREVAQTADARLTEGKIMERRKKIALELSELVVYCRPVPFDEEKIGTERACYRDMSSFPETKAEKYVNKAKGKKFLQYNRLQLSRIYPKGQRLDSSNYDPLPMWICGSQLVALNFQTPDKPMQMNQALFMTGRHCGYVLQPSTMRDEAFDPFDKSSLRGLEPCAISIEVLGARHLPKNGRGIVCPFVEIEVAGAEYDSTKQKTEFVVDNGLNPVWPAKPFHFQISNPEFAFLRFVVYEEDMFSDQNFLAQATFPVKGLKTGYRAVPLKNNYSEDLELASLLIKIDIFPAKENGDLSPFSGTSLRERGSDASGQLFHGRAREGSFESRYQQPFEDFRISQEHLADHFDSRERRAPRRTRVNGDNRL [PLCG1] | 50.2 | 50.2 | -0.13 | -0.0513 | -0.123 | -0.111
